Laboratory results from PMC2801267.

What was measured:
Ku70/80 heterodimer (Ku) = Ku70/80 heterodimer (Ku) (human? (HeLa cells), UniProt P12956;P13010 1-609;1-732); experiment: biotin pull-down
[1] = target: Ku70/80 heterodimer (Ku);DNA-PKcs (human? (HeLa cells);human? (HeLa cells), UniProt P12956;P13010;P78527 1-609;1-732;1-4128, |); experiment: biotin pull-down

Sequence of Ku70/80 heterodimer (Ku) (P12956 whole entry, chain 1 of 2): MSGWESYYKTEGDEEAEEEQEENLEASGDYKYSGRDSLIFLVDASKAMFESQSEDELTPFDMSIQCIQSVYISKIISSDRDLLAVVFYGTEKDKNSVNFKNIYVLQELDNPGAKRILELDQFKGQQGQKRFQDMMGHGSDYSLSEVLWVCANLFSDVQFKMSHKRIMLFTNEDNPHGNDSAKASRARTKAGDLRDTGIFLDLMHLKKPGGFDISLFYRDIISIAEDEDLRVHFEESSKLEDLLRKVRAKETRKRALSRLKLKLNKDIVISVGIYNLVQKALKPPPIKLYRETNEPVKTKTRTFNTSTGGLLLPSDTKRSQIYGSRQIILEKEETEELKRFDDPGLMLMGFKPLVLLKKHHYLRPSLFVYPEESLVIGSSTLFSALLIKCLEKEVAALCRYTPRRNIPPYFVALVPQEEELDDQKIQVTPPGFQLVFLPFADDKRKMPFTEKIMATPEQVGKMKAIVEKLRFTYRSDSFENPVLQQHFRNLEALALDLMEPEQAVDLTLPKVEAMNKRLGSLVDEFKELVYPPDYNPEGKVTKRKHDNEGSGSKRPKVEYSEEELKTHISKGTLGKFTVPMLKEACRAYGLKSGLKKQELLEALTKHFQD
Sequence of Ku70/80 heterodimer (Ku) (P13010 whole entry, chain 2 of 2): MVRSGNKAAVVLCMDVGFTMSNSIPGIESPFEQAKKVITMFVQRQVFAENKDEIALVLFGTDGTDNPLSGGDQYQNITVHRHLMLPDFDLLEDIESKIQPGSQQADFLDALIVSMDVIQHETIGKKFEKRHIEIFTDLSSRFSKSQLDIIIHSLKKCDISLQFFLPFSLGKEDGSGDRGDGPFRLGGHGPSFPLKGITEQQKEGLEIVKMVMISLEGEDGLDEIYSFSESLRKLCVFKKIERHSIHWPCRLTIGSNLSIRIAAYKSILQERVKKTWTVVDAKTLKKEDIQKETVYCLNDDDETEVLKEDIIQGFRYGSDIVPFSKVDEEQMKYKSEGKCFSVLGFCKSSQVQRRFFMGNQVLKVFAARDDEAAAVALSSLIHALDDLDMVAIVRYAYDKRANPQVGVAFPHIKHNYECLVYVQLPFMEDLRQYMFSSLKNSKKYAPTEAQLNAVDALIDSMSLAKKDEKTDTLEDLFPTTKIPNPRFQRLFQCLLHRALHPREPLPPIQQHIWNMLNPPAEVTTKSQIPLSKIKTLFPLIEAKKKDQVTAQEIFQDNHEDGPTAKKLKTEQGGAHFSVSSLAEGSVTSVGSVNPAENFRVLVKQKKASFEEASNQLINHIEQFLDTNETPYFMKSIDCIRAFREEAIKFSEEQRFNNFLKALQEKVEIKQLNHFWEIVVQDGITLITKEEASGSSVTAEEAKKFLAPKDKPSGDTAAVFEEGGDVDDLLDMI

B1: 1 x biotin 40-bp dsDNA (dsDNA)
DNA 1: GGATACACAACAGACCGCAACACTCAGATTACTTTTCGCC
DNA 2: GGCGAAAAGTAATCTGAGTGTTGCGGTCTGTTGTGTATCC
modifications: 5'-biotin on oligo 1
binding result (Ku70/80 heterodimer (Ku)): binds
binding result [1]: binds
